Test results taken from the DeepSol protein solubility set.

Assay: soluble on expression in E. coli; label from the status in PepcDB or PDB records

Sequence	soluble on expression in E. coli
MKPKETVCFNIKYSWHAISRMYNERASKYGTTAAVGFILLNIDVEKGTAATHIGPALGMEATSLSRVFNTMEQDGLIERRNDSSDKRKVTIFLTALGKDKRQIAKDFVLDFNNKVREQVSESKLNTFFEVLHEIQSIIDNKNTSLT	soluble
QVQLQQSGAELMKPGASVKISCKATGYTFSSYWIAWVKQRPGHGLEWIGEILPGSGSTNYNEKFKGKATFTADTSSNTAYMQLSSLTSEDSAVYYCARSPYYYGNWDYWGQGTTLTVSSAKTTPPSVYPLAPGSAAQTNSMVTLGCLVKGYFPEPVTVTWNSGSLSSGVHTFPAVLQSDLYTLSSSVTVPSSTWPSETVTCNVAHPASSTKVDKKIVPRDC	soluble
MSLKKFQHEFWTATSGDLTQRRTPLATPDYQSTSAAAVKIIIDPADRHQPWLGGGAAITDSAAYLLWSVMSAEQRRALLTELFDPDQGGFSSVRVPLGSCDFQSQDFYTYDDVPYGEHDQKLEQFSIGTGQPGAPDATKDLKHIVPVLQEILAINPAVKVIASPWSAPAWMKNTGHLTHGGHLRFGEFTGNGYTEENRFEYIYAQYFIRYIEAYQKLGIPIYGLTIQNEPSNAAHWPAMIWTVPQLADFGYRYLRPALNHSFPDTKLYLLDDSFHALTKPITAEVTPEQAAAFDGLAVHTYSGPYDNLYHANRAYPNWSTIMTERRCMMTDTPEEAAHIMFGIIGNWLVHNGLSMITLWNLALDERGLPNAADSTGREGVVTIDHTTGKVQRNLEYFMLRNFGQDVSVGATVIGSTNYTRDGYTGGLGSVAFLGTAGDIAAHLYNPTAQPIQAAVTINGNGANWQLVTVPPYGTVTLHKSDAPLNTTNVPVDDEFPLNPTPANHSDVAPGQHEGHHHHHH	not soluble
MFEPMMEMSDDAVIKVVGVGGGGGNAVEHMVRESIEGVEFMSINTDAQALRKTSVGTVIQIGGNITKGLGAGANPQVGRDAALEDKERIKEFLTGADMVFIAAGMGGGTGTGAAPVIAEVAKELGILTVAVVTKPFSFEGKKRLAFAEQGIEELSKHVDSLITIPNEKLLKVLGRGITLLEAFASANNVLKNAVQGIAELITRPGMINVDFADVRTVMSEMGHAMMGSGVARGEDRAEEAAEMAISSPLLEDIDLAGARGVLVNITAGLDMRLDEFETVGNTVKAFASDNATVVIGTSLDPDMADEIRVTVVATGIGNEKKPDITLVAGGKSKVAPVSAPVTSRVEEKAAQPLHERVEVKTQPAAAPSHSSASQSVAPKPEKESGYLDIPAFLRRQAD	not soluble
SYTLPSLPYAYDALEPHFDKQTMEIHHTKHHQTYVNNANAALESLPEFANLPVEELITKLDQLPADKKTVLRNNAGGHANHSLFWKGLKKGTTLQGDLKAAIERDFGSVDNFKAEFEKAAASRFGSGWAWLVLKGDKLAVVSTANHDSPLMGEAISGASGFPIMGLDVWEHAYYLKFQNRRPDYIKEFWNVVNWDEAAARFAAKK	soluble
MPASEQGFWRGMETCGWGGGSYILYAWARNAPNLVLPKDVAFSVGHEQDGIKYFVLQVHYAQPFAGEVHDFSGVTMHISQKKPMNLAAVMLFVSGTPIPPQLPAFQNNITCMFESSTPIHPFAFRTHTHAMGRLVSAFFKHDGHWTKIGKRNPQWPQLFEGIPSKLMIGSGDQMSASCRFDSMDKNRTVNMGAMGVDEMCNFYMMFHYDAKLDNPYPQGAICAKDYPSKMIDYPKDGFELLPSRPELEHHAHQSKVPFGIVQEAIHENLGGVKLGQVAGLAFNNEQQLLVFQRAGRVWDASTFDNYNILLDKKPIADPVILVISYSGNQTKLERKLGGGQFYLPHGIYVDKDGFVYTTDVGSHTVAKWKIEGNELKNIWTSGELLMPGSDQHHYCKPTGITRVEDQLYVTDGYCNSRVVVLDLNGKRIRQFGLPGEDAGQFNLPHDIVSDSAGRLLVTDRENGRVQHMTTQGHVIEEFKSTMFTNIYSAASHEDYVFMVPGRPIMGHETEGIAVFVGRSGTGLIEYAFGPTTKGKREQMGPQFGQPHCLRVCPDGGHIFVGDIAEGKARLWQFKVNLLEMCGSKYDMIKIKLMILP	not soluble
MSLSLWWKRAKARMTESVTYYQEPAFEKLLPDPDPTFERPYTLCLSLDDLLIHSEWTREHGWRIAKRPGVDYFIRYLSQYYELVLFTTTPYATGEPVMRKLDPFRLILWPLYREATKFEDGEIVKDLSYLNRDLSKVIIIDTKAKHVRNQPDNAIILDPWKGDKDDKNLVNLIPFLEYIHTMQYSDVRKVIKSFDGKDIPTEGHHHHHH	not soluble
MSLKKILLLLANGFEAVEASVFTDVLGWNMLEGDGSTLVVTAGMHDKIKCTWNFTVLPEIKIKNVNVDDFEALVIPGGFEEAGFFIDAYSNSFLDLIRTFNAKGKIIASVCVGALSIGKSGILKGRTATTYNLNDRKRQYELSKFGVKILENQPIVIDKNVITSYNPSTAFNVAFTLLEMLTSTENCTKVKKLMGFIEGHHHHHH	soluble
